In article PMC8166883 (2020):
Substitutions are numbered along the chain they refer to.

B1: FLAG-tagged human vascular endothelial growth factor-A (FLAG-hVEGF-A) (ligand)
chain: APMAEGGGQNHHEVVKFMDVYQRSYCHPIETLVDIFQEYPDEIEYIFKPSCVPLMRCGGCCNDEGLECVPTEESNITMQIMRIKPHQGQHIGEMSFLQHNKCECRPKKDRARQENPCGPCSERRKHLFVQDPQTCKCSCKNTDSRCKARQLELNERTCRCDKPRR
B2: anti-hVEGF-A clone A033AM-19 (affinity-matured from A033) (antibody, V domains shown)
VH: EVELVQSGAEVKKPGSSVKVSCKASGGTFSDYSISWVRQAPGQGLEWMGGIIPIFGTPNYAQKFQGRVTITADESTSTAYMELSSLRSEDTAVYYCADGGAYCGGDCYSGYYYYGMDVWGQGTTVTVSS
VL: QSALTQPASVSGSPGQSITISCTGTSSDVGGYNLVSWYQQHPGKAPKLMIYQDNNKRPSGVSNRFSGSKSGNTASLTISGLQAEDEADYYCSYTNDSNSQVFGGGTKLTVL
B3: anti-hVEGF-A clone A033 (antibody, V domains shown)
VH: B2 VH with D31S, S33A
VL: B2 VL

What was measured:
Assay in all cases: SPR
[1] = molecular target: B015
[2] = molecular target: B021
[3] = molecular target: B1

Kd [1] | koff [1] | Kd [2] | koff [2] | koff [3] | Binder
29.4 pM | 0.000549 s⁻¹ | 903 pM | 0.000577 s⁻¹ |  | B1
 |  |  |  | 0.000411 s⁻¹ | B2
 |  |  |  | 0.00405 s⁻¹ | B3
